Abundance fitness data for 167 variants are collected here from the Human Domainome abundance scans (Beltran et al. 2025).

± gives the uncertainty stated by the source.

The labels stand for the following.
B1: POU domain, class 4, transcription factor 2, residues 256 to 327; numbered along this chain, Q12837 (parent)
chain: RDLEAFAERFKQRRIKLGVTQADVGSALANLKIPGVGSLSQSTICRFESLTLSHNNMIALKPILQAWLEEAE

The series covers variants of B1. Description: abundance fitness (aPCA) (normalised: wild type 0, dead -1); higher = more abundant; growth selection in yeast, the domain comes from the species named. The note with it: Homo sapiens.
Take K16N: the abundance fitness is -0.55 ± 0.49.

For the variant K16P, the abundance fitness is -1.1 ± 0.28.

On to K16F, for which the abundance fitness is -0.066 ± 0.11.

I58F: the abundance fitness was -0.287 ± 0.11.

For the variant I58S, the abundance fitness was -0.017 ± 0.057.

With I58P, the abundance fitness was -0.854 ± 0.17.

As to I58D, the abundance fitness is -0.615 ± 0.27.

On to N56G, for which the abundance fitness is -0.024 ± 0.13.

On to H54F, for which the abundance fitness was -0.086 ± 0.11.

As for D23R, the abundance fitness was -0.243 ± 0.045.

On to D23N, for which the abundance fitness was -0.119 ± 0.19.

Consider Q41C, for which the abundance fitness was -0.37 ± 0.11.

Turning to Q41W, the abundance fitness was -0.06 ± 0.068.

Q41V: the abundance fitness was -0.187 ± 0.077.

With Q41D, the abundance fitness was -0.058 ± 0.098.

Regarding Q41R, the abundance fitness is -0.061 ± 0.06.

In the case of Q41F, the abundance fitness is -0.335 ± 0.12.

With Q41H, the abundance fitness came to 0.089 ± 0.11.

In the case of S49G, the abundance fitness was found to be 0.055 ± 0.093.

For S49L, the abundance fitness was -0.297 ± 0.056.

Consider S49M, for which the abundance fitness was -0.492 ± 0.36.

In the case of S49N, the abundance fitness is -0.065 ± 0.19.

As to S49F, the abundance fitness was -0.651 ± 0.24.

As for S38Q, the abundance fitness was -0.051 ± 0.12.

S38L: the abundance fitness was -0.045 ± 0.055.

Regarding S38I, the abundance fitness is -0.146 ± 0.14.

For E4Y, the abundance fitness amounted to 0.13 ± 0.12.

In the case of E4T, the abundance fitness is -0.002 ± 0.074.

As for E4F, the abundance fitness was -0.251 ± 0.18.

With E4A, the abundance fitness is -0.048 ± 0.057.

Regarding G37S, the abundance fitness turned out to be 0.028 ± 0.055.

Take G37Q: the abundance fitness is -0.015 ± 0.097.

Turning to G37M, the abundance fitness was -0.163 ± 0.085.

As to G37R, the abundance fitness is -0.111 ± 0.055.

For the variant G37V, the abundance fitness is -0.269 ± 0.067.

Consider Q12H, for which the abundance fitness turned out to be 0.011 ± 0.16.

For the variant Q12I, the abundance fitness was -0.063 ± 0.13.

Take Q12C: the abundance fitness was -0.865 ± 0.43.

On to N55S, for which the abundance fitness was 0.013 ± 0.051.

R1S: the abundance fitness was -0.235 ± 0.087.

As for L60P, the abundance fitness is -0.971 ± 0.23.

With L60E, the abundance fitness is -0.866 ± 0.21.

As to L60F, the abundance fitness was -0.29 ± 0.14.

As for G18S, the abundance fitness is -0.652 ± 0.078.

Regarding G18L, the abundance fitness was -0.598 ± 0.083.

Turning to G18E, the abundance fitness is -0.322 ± 0.13.

As to G18Q, the abundance fitness is -0.446 ± 0.088.

Turning to G35H, the abundance fitness is -0.528 ± 0.18.

Regarding G35Y, the abundance fitness was -0.763 ± 0.32.

For G35P, the abundance fitness is -0.77 ± 0.13.

With E8K, the abundance fitness worked out at 0.007 ± 0.11.

With E8W, the abundance fitness was -0.208 ± 0.074.

Consider E8G, for which the abundance fitness is -0.119 ± 0.056.

Turning to S42K, the abundance fitness stood at 0.068 ± 0.27.

In the case of S42R, the abundance fitness is -0.085 ± 0.068.

Turning to S42G, the abundance fitness is -0.11 ± 0.068.

With S42L, the abundance fitness is -0.152 ± 0.062.

On to S42Q, for which the abundance fitness is -0.084 ± 0.11.

On to T51Q, for which the abundance fitness is -0.041 ± 0.086.

Consider T51S, for which the abundance fitness turned out to be 0.018 ± 0.028.

For T51M, the abundance fitness worked out at 0.077 ± 0.096.

Regarding L50G, the abundance fitness was determined as 0.06 ± 0.046.

Turning to L50A, the abundance fitness is 0.005 ± 0.061.

For the variant L3Y, the abundance fitness is -0.213 ± 0.11.

For the variant L3W, the abundance fitness was -0.283 ± 0.081.

As for L17A, the abundance fitness was -0.394 ± 0.12.

Consider V24M, for which the abundance fitness was -0.191 ± 0.098.

Take V24I: the abundance fitness is -0.145 ± 0.15.

With V24K, the abundance fitness was -0.844 ± 0.21.

Take C45S: the abundance fitness amounted to 0.065 ± 0.059.

Take E48L: the abundance fitness was -0.93 ± 0.17.

Take E48H: the abundance fitness is -0.818 ± 0.36.

Consider I15R, for which the abundance fitness is -0.298 ± 0.055.

As to I15A, the abundance fitness was -0.237 ± 0.082.

Consider I15F, for which the abundance fitness is -0.36 ± 0.11.

In the case of I15C, the abundance fitness was -0.405 ± 0.12.

Consider I63P, for which the abundance fitness is -0.329 ± 0.052.

With I63T, the abundance fitness was -0.098 ± 0.09.

Consider I63N, for which the abundance fitness is -0.628 ± 0.33.

Consider K61E, for which the abundance fitness is -0.32 ± 0.095.

Take K61A: the abundance fitness is -0.178 ± 0.07.

Regarding K61F, the abundance fitness is -0.38 ± 0.16.

Consider K32Q, for which the abundance fitness was -0.012 ± 0.069.

Turning to R14T, the abundance fitness is -0.698 ± 0.1.

R14P: the abundance fitness was -0.985 ± 0.078.

Regarding A66K, the abundance fitness worked out at 0.004 ± 0.086.

Consider A66V, for which the abundance fitness is -0.153 ± 0.065.

A66R: the abundance fitness is -0.008 ± 0.067.

Regarding A66Y, the abundance fitness was -0.298 ± 0.12.

As for A66C, the abundance fitness was -0.378 ± 0.12.

As for E72A, the abundance fitness was -0.617 ± 0.28.

Take E72H: the abundance fitness was -0.38 ± 0.18.

As to S53N, the abundance fitness is -0.605 ± 0.29.

Turning to P62V, the abundance fitness was -0.726 ± 0.11.

L31H: the abundance fitness was -0.379 ± 0.25.

L31F: the abundance fitness was -0.018 ± 0.16.

As for L31K, the abundance fitness was 0.002 ± 0.22.

Turning to L31Y, the abundance fitness came to 0.041 ± 0.23.

Take V19S: the abundance fitness is -0.092 ± 0.052.

As for P34I, the abundance fitness was -0.402 ± 0.22.

Regarding P34D, the abundance fitness is -0.221 ± 0.13.

As for F47D, the abundance fitness was -0.82 ± 0.35.

Turning to F47N, the abundance fitness was -0.871 ± 0.37.

Consider F47C, for which the abundance fitness was -0.214 ± 0.24.

Consider F47I, for which the abundance fitness was -0.67 ± 0.38.

For the variant E69A, the abundance fitness was -0.119 ± 0.083.

A29I: the abundance fitness was -0.323 ± 0.18.

Take A29K: the abundance fitness stood at 0.042 ± 0.1.

Turning to A29D, the abundance fitness was found to be 0.03 ± 0.44.

A29S: the abundance fitness was 0.019 ± 0.052.

Consider A7E, for which the abundance fitness was -0.443 ± 0.23.

Take R9K: the abundance fitness was 0.007 ± 0.17.

R9W: the abundance fitness was -0.136 ± 0.074.

On to R9T, for which the abundance fitness was 0.033 ± 0.073.

For the variant N30L, the abundance fitness was -0.244 ± 0.064.

For N30K, the abundance fitness is 0.054 ± 0.14.

As for L39F, the abundance fitness is -0.181 ± 0.14.

Consider L39Y, for which the abundance fitness is -0.53 ± 0.16.

In the case of I33E, the abundance fitness was -0.205 ± 0.18.

I33A: the abundance fitness was -0.295 ± 0.063.

As to Q21K, the abundance fitness was -0.361 ± 0.19.

On to Q21W, for which the abundance fitness is -0.238 ± 0.059.

With Q21E, the abundance fitness is -0.258 ± 0.1.

Turning to Q21L, the abundance fitness came out at 0.002 ± 0.055.

Take Q21T: the abundance fitness is 0.011 ± 0.066.

Turning to Q21N, the abundance fitness was -0.346 ± 0.39.

Turning to Q21M, the abundance fitness is -0.39 ± 0.097.

Take T20I: the abundance fitness was -0.916 ± 0.34.

For the variant G25F, the abundance fitness is -0.494 ± 0.24.

For the variant G25L, the abundance fitness is -0.031 ± 0.059.

Consider A59K, for which the abundance fitness was -0.057 ± 0.14.

With A59E, the abundance fitness is -0.193 ± 0.17.

As for T43K, the abundance fitness was -0.624 ± 0.17.

On to T43C, for which the abundance fitness was -0.232 ± 0.096.

As for E70W, the abundance fitness was -0.45 ± 0.11.

In the case of E70T, the abundance fitness is -0.231 ± 0.12.

A5S: the abundance fitness is -0.167 ± 0.097.

Turning to A5L, the abundance fitness was 0.017 ± 0.12.

As to A5T, the abundance fitness is -0.201 ± 0.2.

With K11H, the abundance fitness is -0.901 ± 0.25.

Take K11R: the abundance fitness was -0.106 ± 0.056.

For S40N, the abundance fitness was -0.108 ± 0.41.

Take S40C: the abundance fitness was -0.131 ± 0.084.

Consider S40A, for which the abundance fitness was -0.203 ± 0.056.

S40D: the abundance fitness was determined as 0.016 ± 0.3.

For S40L, the abundance fitness was -0.671 ± 0.088.

On to S40V, for which the abundance fitness is -0.385 ± 0.076.

For the variant S40G, the abundance fitness worked out at 0.014 ± 0.067.

Take S26N: the abundance fitness came out at 0.239 ± 0.2.

In the case of S26F, the abundance fitness is -0.032 ± 0.12.

On to F10Q, for which the abundance fitness was -0.825 ± 0.23.

Turning to A71W, the abundance fitness is -0.057 ± 0.2.

On to A71E, for which the abundance fitness is -0.247 ± 0.083.

As to A71S, the abundance fitness was -0.183 ± 0.092.

On to A27L, for which the abundance fitness was -0.302 ± 0.034.

Consider A27F, for which the abundance fitness was -0.114 ± 0.19.

For the variant A27G, the abundance fitness is -0.39 ± 0.083.

Regarding R46A, the abundance fitness was -0.027 ± 0.11.

On to R46D, for which the abundance fitness worked out at 0.094 ± 0.14.

Consider D2L, for which the abundance fitness was -0.568 ± 0.084.

Turning to D2R, the abundance fitness is -0.379 ± 0.06.

I44S: the abundance fitness is -0.963 ± 0.28.

Take V36T: the abundance fitness is -0.417 ± 0.09.

For L64K, the abundance fitness was -0.884 ± 0.42.

In the case of L64N, the abundance fitness is -0.823 ± 0.2.

Turning to L64G, the abundance fitness is -0.787 ± 0.12.

In the case of L64W, the abundance fitness was -1.11 ± 0.39.
